Values quoted from earlier work in paper PMC10474108.

Target: tau (full-length, nonphosphorylated) (Homo sapiens) (UniProt P10636)
UniProt P10636, sequence (P10636 2-758): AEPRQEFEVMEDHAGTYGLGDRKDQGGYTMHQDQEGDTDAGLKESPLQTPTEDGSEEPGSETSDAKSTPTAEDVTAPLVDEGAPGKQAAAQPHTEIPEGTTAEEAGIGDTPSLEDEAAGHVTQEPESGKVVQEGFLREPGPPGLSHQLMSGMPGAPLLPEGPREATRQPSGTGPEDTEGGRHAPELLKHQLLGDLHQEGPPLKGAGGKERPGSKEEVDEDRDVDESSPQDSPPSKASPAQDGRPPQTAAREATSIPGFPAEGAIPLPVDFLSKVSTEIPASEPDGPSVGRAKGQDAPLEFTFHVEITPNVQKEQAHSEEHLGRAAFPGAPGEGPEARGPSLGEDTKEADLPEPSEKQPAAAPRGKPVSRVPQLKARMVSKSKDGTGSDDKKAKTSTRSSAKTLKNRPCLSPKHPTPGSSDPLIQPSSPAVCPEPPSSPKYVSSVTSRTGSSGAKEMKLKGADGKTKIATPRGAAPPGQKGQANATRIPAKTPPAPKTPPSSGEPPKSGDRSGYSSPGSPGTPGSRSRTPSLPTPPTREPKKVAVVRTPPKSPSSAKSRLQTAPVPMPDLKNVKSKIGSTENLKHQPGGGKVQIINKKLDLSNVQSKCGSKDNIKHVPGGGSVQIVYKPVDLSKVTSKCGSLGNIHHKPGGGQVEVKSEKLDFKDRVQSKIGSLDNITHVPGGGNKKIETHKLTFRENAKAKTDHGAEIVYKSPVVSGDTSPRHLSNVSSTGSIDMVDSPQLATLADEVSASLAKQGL

Kd: 60 nM
Substance: LRP1 (from UniProt Q07954)
